Consider four molecules from US20230340128A1 (Xencor, published 2023).

Assay [1] concerns the target T1, human mesothelin (MSLN) (human, UniProt Q13421 296-580, limits assumed).
T1 construct: Antigen of the Octet KD values
As to the kind of experiment: KD quoted in the FIG. 25 legend; Octet (BLI) per FIGS. 20-21. Background: Biolayer interferometry detects binding as a change in optical thickness at a sensor tip.

In assay [2] the target is T2, MSLN on OVCAR8 cells (~90K MSLN antigens/cell) (UniProt Q13421 296-598). The assay is described as follows: binding to OVCAR8 cells, MFI APC against mAb concentration.
Assay [3] concerns the target T1, human mesothelin (MSLN). The assay is described as follows: label in the legend box: nominal affinity of the MSLN binding domain (paragraph 422 calls such label values KD); method not stated on the sheet.
Assay [4] concerns the target T3, MSLN on OVCAR8 cells (~90K MSLN antigens/cell) (UniProt Q13421 296-598).
T3 construct: whole, on cells; Endogenous expression on a cancer cell line
The assay is described as follows: flow cytometry on OVCAR8 cells, 1 h at 4 C, anti-human-Fc A647 secondary. As to the method: (§1) In this experiment, 50,000 OVCAR8 cells (˜90K MSLN antigens/cell) were seeded per well in a plate. Anti-human-Fc secondary (A647) was added for 30 min at 4° C., and binding was assessed via FACs. FIG. 39C depicts that the CD28×MSLN bsAbs in neither 1+1-Fab-scFv format nor the 2+1 mAb-scFv format antibodies show any significant off target binding. In this experiment, 50,000 SKOV3 cells (˜9K MSLN antigens/cell) were seeded per well in a plate. Anti-human-Fc secondary (A647) was added for 30 min at 4° C., and binding was assessed via FACs.
(§2) In order to assess the binding of MSLN×CD28 bsAbs in different formats, an experiment was conducted in which 50,000 OVCAR8 cells (˜90K MSLN antigens/cell) were seeded per well in a plate. Anti-human-Fc secondary (A647) was added for 30 min at 4° C., and binding was assessed via FACs.
On the technique in general: A flow cytometer gives signals particle by particle.

A further assay addresses T4, human CD28 (human, UniProt P10747 19-152, limits assumed).
T4 construct: also called Cluster of Differentiation 28; Tp44
The assay is described as follows: label in the legend box: nominal affinity of the CD28 binding domain (paragraph 422 calls such label values KD); method not stated on the sheet.

The target of assay [5] is T3, MSLN on OVCAR8 cells (~90K MSLN …). The assay is described as follows: flow cytometry on OVCAR8 cells, 1 h at 4 C, anti-human-Fc A647 secondary. As for the experimental part: as §1, §2
This is another data set of the same source.

The target in assay [6] is T2, MSLN on OVCAR8 cells (~90K MSLN …). The assay is described as follows: binding to OVCAR8 cells, MFI APC against mAb concentration. This is another data set of the same source.

By Kd is commonly meant the equilibrium constant for the complex coming apart. A low value points to a tighter complex. One may read the EC50 (read off the curve) as the concentration needed to bring the measured effect to its halfway point.

B1: XENP32853 (bispecific antibody)
chain 1: QVQLVQSGAEVKKPGASVKVSCKASGYTFTSYWMHWVRQAPGQGLEWMGMIHPNSDNTIYYEKFQGRVTMTVDKSISTAYMELSRLRSDDTAVYYCAIIITPVVPKFDYWGQGTLVTVSSASTKGPSVFPLAPSSKSTSGGTAALGCLVKDYFPEPVTVSWNSGALTSGVHTFPAVLQSSGLYSLSSVVTVPSSSLGTQTYICNVNHKPSDTKVDKKVEPKSCDKTHTCPPCPAPPVAGPSVFLFPPKPKDTLMISRTPEVTCVVVDVKHEDPEVKFNWYVDGVEVHNAKTKPREEEYNSTYRVVSVLTVLHQDWLNGKEYKCKVSNKALPAPIEKTISKAKGQPREPQVYTLPPSREEMTKNQVSLTCDVSGFYPSDIAVEWESDGQPENNYKTTPPVLDSDGSFFLYSKLTVDKSRWEQGDVFSCSVMHEALHNHYTQKSLSLSPGK
chain 2: QVQLVQSGAEVKKPGASVKVSCKASGYTFTSYWMHWVRQAPGQGLEWMGMIHPNSDNTIYYEKFQGRVTMTVDKSISTAYMELSRLRSDDTAVYYCAIIITPVVPKFDYWGQGTLVTVSSASTKGPSVFPLAPSSKSTSGGTAALGCLVKDYFPEPVTVSWNSGALTSGVHTFPAVLQSSGLYSLSSVVTVPSSSLGTQTYICNVNHKPSNTKVDKKVEPKSCGGGGSGGGGSQAVVTQEPSLTVSPGGTVTLTCGSSTGAVTTSNYANWVQQKPGKSPRGLIGGTNKRAPGVPARFSGSLLGGKAALTISGAQPEDEADYYCALWYSNHWVFGGGTKLTVLGKPGSGKPGSGKPGSGKPGSEVQLVESGGGLVQPGGSLRLSCAASGFTFSTYAMNWVRQAPGKGLEWVGRIRSKYNNYATYYADSVKGRFTISRDDSKNTLYLQMNSLRAEDTAVYYCVRHGNFGDEYVSWFAYWGQGTLVTVSSEPKSSDKTHTCPPCPAPPVAGPSVFLFPPKPKDTLMISRTPEVTCVVVDVKHEDPEVKFNWYVDGVEVHNAKTKPREEQYNSTYRVVSVLTVLHQDWLNGKEYKCKVSNKALPAPIEKTISKAKGQPREPQVYTLPPSREQMTKNQVKLTCLVKGFYPSDIAVEWESNGQPENNYKTTPPVLDSDGSFFLYSKLTVDKSRWQQGNVFSCSVMHEALHNHYTQKSLSLSPGK
chain 3: DIVMTQSPDSLAVSLGERATINCKASHDVGTSVAWYQQKPGQSPKLLIYWASTRHTGVPDRFTGSGSGTDFTLTISSLQAEDVAVYFCQQYYSYPLTFGAGTKLEIKRTVAAPSVFIFPPSDEQLKSGTASVVCLLNNFYPREAKVQWKVDNALQSGNSQESVTEQDSKDSTYSLSSTLTLSKADYEKHKVYACEVTHQGLSSPVTKSFNRGEC
With B1, the Kd with human mesothelin (MSLN) [1] was 3.9 nM. Also, the “EC50 (read off the curve)” value in assay [2] is roughly 0.06 µg/mL.

B2: XENP39566 (bispecific antibody)
heavy: QVQLVQSGAEVKKPGASVKVSCKASGYTFTSYWMHWVRQAPGQGLEWMGWIHPNSDNTIYYEKFQGRVTMTVDKSISTAYMELSRLRSDDTAVYYCAIIITPVVPKFDYWGQGTLVTVSSASTKGPSVFPLAPSSKSTSGGTAALGCLVKDYFPEPVTVSWNSGALTSGVHTFPAVLQSSGLYSLSSVVTVPSSSLGTQTYICNVNHKPSDTKVDKKVEPKSCDKTHTCPPCPAPPVAGPSVFLFPPKPKDTLMISRTPEVTCVVVDVKHEDPEVKFNWYVDGVEVHNAKTKPREEEYNSTYRVVSVLTVLHQDWLNGKEYKCKVSNKALPAPIEKTISKAKGQPREPQVYTLPPSREEMTKNQVSLTCDVSGFYPSDIAVEWESDGQPENNYKTTPPVLDSDGSFFLYSKLTVDKSRWEQGDVFSCSVLHEALHSHYTQKSLSLSPGK
scFv-Fc: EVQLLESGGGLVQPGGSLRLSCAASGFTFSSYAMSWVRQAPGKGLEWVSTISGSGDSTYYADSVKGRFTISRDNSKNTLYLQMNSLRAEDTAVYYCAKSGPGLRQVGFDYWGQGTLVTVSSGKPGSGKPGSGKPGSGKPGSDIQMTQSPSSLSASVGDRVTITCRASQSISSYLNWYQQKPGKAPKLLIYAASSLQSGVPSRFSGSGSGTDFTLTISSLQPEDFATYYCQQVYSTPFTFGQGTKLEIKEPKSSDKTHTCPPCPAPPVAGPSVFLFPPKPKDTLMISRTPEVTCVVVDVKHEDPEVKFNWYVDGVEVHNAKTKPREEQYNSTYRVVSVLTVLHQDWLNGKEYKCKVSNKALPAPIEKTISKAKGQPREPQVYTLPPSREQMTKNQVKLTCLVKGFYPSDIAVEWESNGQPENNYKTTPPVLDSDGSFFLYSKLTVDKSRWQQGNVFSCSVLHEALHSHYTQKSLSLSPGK
light: DIVMTQSPDSLAVSLGERATINCKASHDVGTSVAWYQQKPGQSPKLLIYWASTRHTGVPDRFTGSGSGTDFTLTISSLQAEDVAVYFCQQYSSYPLTFGAGTKLEIKRTVAAPSVFIFPPSDEQLKSGTASVVCLLNNFYPREAKVQWKVDNALQSGNSQESVTEQDSKDSTYSLSSTLTLSKADYEKHKVYACEVTHQGLSSPVTKSFNRGEC
notes: also called XENP39566 MSLN (9 nM) x CD28 (180 nM) 1+1 Fab-scFv-Fc
Take B2: the dissociation constant (Kd) worked out at 9 nM with human mesothelin (MSLN) [3] and 180 nM with human CD28. The half-maximal effective concentration (EC50 (read off the curve)) in assay [4] and in assay [5] was roughly 4 µg/mL in each case.

B3: XENP32751 (bispecific antibody)
chain 1: QVQLVQSGAEVKKPGASVKVSCKASGYTFTSYWMHWVRQAPGQGLEWMGMIHPNSDNTIYYEKFQGRVTMTVDKSISTAYMELSRLRSDDTAVYYCAIIITPVVPKFDYWGQGTLVTVSSASTKGPSVFPLAPSSKSTSGGTAALGCLVKDYFPEPVTVSWNSGALTSGVHTFPAVLQSSGLYSLSSVVTVPSSSLGTQTYICNVNHKPSDTKVDKKVEPKSCDKTHTCPPCPAPPVAGPSVFLFPPKPKDTLMISRTPEVTCVVVDVKHEDPEVKFNWYVDGVEVHNAKTKPREEEYNSTYRVVSVLTVLHQDWLNGKEYKCKVSNKALPAPIEKTISKAKGQPREPQVYTLPPSREEMTKNQVSLTCDVSGFYPSDIAVEWESDGQPENNYKTTPPVLDSDGSFFLYSKLTVDKSRWEQGDVFSCSVMHEALHNHYTQKSLSLSPGK
chain 2: QVQLVQSGAEVKKPGASVKVSCKASGYTFTSYWMHWVRQAPGQGLEWMGMIHPNSDNTIYYEKFQGRVTMTVDKSISTAYMELSRLRSDDTAVYYCAIIITPVVPKFDYWGQGTLVTVSSASTKGPSVFPLAPSSKSTSGGTAALGCLVKDYFPEPVTVSWNSGALTSGVHTFPAVLQSSGLYSLSSVVTVPSSSLGTQTYICNVNHKPSNTKVDKKVEPKSCGGGGSGGGGSQAVVTQEPSLTVSPGGTVTLTCGSSTGAVTTSNYANWVQQKPGKSPRGLIGGTNKRAPGVPARFSGSLLGGKAALTISGAQPEDEADYYCALWYSNHWVFGGGTKLTVLGKPGSGKPGSGKPGSGKPGSEVQLVESGGGLVQPGGSLRLSCAASGFTFSTYAMNWVRQAPGKGLEWVGRIRSKANNYATYYADSVKGRFTISRDDSKNTLYLQMNSLRAEDTAVYYCVRHGNFGDSYVSWFAYWGQGTLVTVSSGGGGSGGGGSKTHTCPPCPAPPVAGPSVFLFPPKPKDTLMISRTPEVTCVVVDVKHEDPEVKFNWYVDGVEVHNAKTKPREEQYNSTYRVVSVLTVLHQDWLNGKEYKCKVSNKALPAPIEKTISKAKGQPREPQVYTLPPSREQMTKNQVKLTCLVKGFYPSDIAVEWESNGQPENNYKTTPPVLDSDGSFFLYSKLTVDKSRWQQGNVFSCSVMHEALHNHYTQKSLSLSPGK
chain 3: DIVMTQSPDSLAVSLGERATINCKASHDVGTYVAWYQQKPGQSPKLLIYWASTRHTGVPDRFTGSGSGTDFTLTISSLQAEDVAVYFCQQYSSYPLTFGAGTKLEIKRTVAAPSVFIFPPSDEQLKSGTASVVCLLNNFYPREAKVQWKVDNALQSGNSQESVTEQDSKDSTYSLSSTLTLSKADYEKHKVYACEVTHQGLSSPVTKSFNRGEC
B3: the concentration for a half-maximal effect (EC50 (read off the curve)) in assay [6] was roughly 0.05 µg/mL. In the assay with human mesothelin (MSLN) [1], this molecule yielded a Kd of roughly 12.8 nM.

B4: XENP39554 (bispecific antibody)
heavy: QVQLVQSGAEVKKPGASVKVSCKASGYTFTSYWMHWVRQAPGQGLEWMGMIHPNSDNTIYYEKFQGRVTMTVDKSISTAYMELSRLRSDDTAVYYCAIIITPVVPKFDYWGQGTLVTVSSASTKGPSVFPLAPSSKSTSGGTAALGCLVKDYFPEPVTVSWNSGALTSGVHTFPAVLQSSGLYSLSSVVTVPSSSLGTQTYICNVNHKPSDTKVDKKVEPKSCDKTHTCPPCPAPPVAGPSVFLFPPKPKDTLMISRTPEVTCVVVDVKHEDPEVKFNWYVDGVEVHNAKTKPREEEYNSTYRVVSVLTVLHQDWLNGKEYKCKVSNKALPAPIEKTISKAKGQPREPQVYTLPPSREEMTKNQVSLTCDVSGFYPSDIAVEWESDGQPENNYKTTPPVLDSDGSFFLYSKLTVDKSRWEQGDVFSCSVLHEALHSHYTQKSLSLSPGK
scFv-Fc: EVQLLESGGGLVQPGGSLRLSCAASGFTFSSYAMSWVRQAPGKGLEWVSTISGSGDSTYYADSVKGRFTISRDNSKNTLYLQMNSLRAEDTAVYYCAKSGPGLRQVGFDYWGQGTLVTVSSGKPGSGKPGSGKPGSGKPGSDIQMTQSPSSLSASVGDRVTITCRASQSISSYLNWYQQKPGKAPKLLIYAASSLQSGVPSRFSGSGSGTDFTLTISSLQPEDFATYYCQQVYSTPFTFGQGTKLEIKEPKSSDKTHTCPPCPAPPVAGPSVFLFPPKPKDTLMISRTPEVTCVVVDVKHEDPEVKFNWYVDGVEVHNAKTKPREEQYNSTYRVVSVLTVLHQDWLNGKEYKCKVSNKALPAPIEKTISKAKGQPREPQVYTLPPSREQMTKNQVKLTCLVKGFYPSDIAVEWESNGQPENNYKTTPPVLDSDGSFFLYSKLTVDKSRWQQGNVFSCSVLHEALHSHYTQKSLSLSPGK
light: DIVMTQSPDSLAVSLGERATINCKASHDVGTSVAWYQQKPGQSPKLLIYWASTRHTGVPDRFTGSGSGTDFTLTISSLQAEDVAVYFCQQYSSYPLTFGAGTKLEIKRTVAAPSVFIFPPSDEQLKSGTASVVCLLNNFYPREAKVQWKVDNALQSGNSQESVTEQDSKDSTYSLSSTLTLSKADYEKHKVYACEVTHQGLSSPVTKSFNRGEC
notes: also called XENP39554 MSLN (0.3 nM) x CD28 (180 nM) 1+1 Fab-scFv-Fc
B4: the Kd with human mesothelin (MSLN) [3] was 0.3 nM; with human CD28 it was 180 nM. For the same molecule, the “EC50 (read off the curve)” value in assay [4] and in assay [5] was roughly 0.01 µg/mL each time.
